Sequences and labels used below:
B1: mono-Eu-labeled relaxin-3 agonist H3 relaxin B-chain, INSL5 A chain (H3/I5) [modified: mono-Eu label on the peptide; chain and site not stated] [not stated | human] / HA-tagged human RXFP3 (HA-RXFP3) [human] (parent complex)
chain 1: RAAPYGVRLCGREFIRAVIFTCGGSRW
chain 2: QDLQTLCCTDGCSMTDLSALC
chain 3: QMADAATIATMNKAAGGDKLAELFSLVPDLLEAANTSGNASLQLPDLWWELGLELPDGAPPGHPPGSGGAESADTEARVRILISVVYWVVCALGLAGNLLVLYLMKSMQGWRKSSINLFVTNLALTDFQFVLTLPFWAVENALDFKWPFGKAMCKIVSMVTSMNMYASVFFLTAMSVTRYHSVASALKSHRTRGHGRGDCCGRSLGDSCCFSAKALCVWIWALAALASLPSAIFSTTVKVMGEELCLVRFPDKLLGRDRQFWLGLYHSQKVLLGFVLPLGIIILCYLLLVRFIADRRAAGTKGGAAVAGGRPTGASARRLSKVTKSVTIVVLSFFLCWLPNQALTTWSILIKFNAVPFSQEYFLCQVYAFPVSVCLAHSNSCLNPVLYCLVRREFRKALKSLLWRIASPSITSMRPFTATTKPEHEDQGLQAPAPPHAAAEPDLLYYPPGVVVYSGGRYDLLPSSSAY

Eleven variants from article PMC3579193, “Elucidation of relaxin-3 binding interactions in the extracellular loops of RXFP3” (Frontiers in Endocrinology, 2013) can be followed below.

In this test the parent is B1. Put plainly: Eu-H3/I5 binding on cells, normalized to cell surface expression; read off a plot.
For the variant chain 3 QMADAATIATMNKAAGGDKLAELFSLVPDLLEAANTSGNASLQLPDLWWELGLELPDGAPPGHPPGSGGAESADTEARVRILISVVYWVVCALGLAGNLLVLYLMKSMQGWRKSSINLFVTNLALTDFQFVLTLPFWAVENALDFKWPFGKAMCKIVSMVTSMNMYASVFFLTAMSVTRYHSVASALKSHRTRGHGRGDCCGRSLGDSCCFSAKALCVWIWALAALASLPSAIFSTTVKVMGEELCLVRFPDKLLGRDRQFWLGLYHSQKVLLGFVLPLGIIILCYLLLVRFIADRRAAGTKGGAAVAGGRPTGASARRLSKVTKSVTIVVLSFFLCWLPNQALTTWSILIKFNAVPFSQAYFLCQVYAFPVSVCLAHSNSCLNPVLYCLVRREFRKALKSLLWRIASPSITSMRPFTATTKPEHEDQGLQAPAPPHAAAEPDLLYYPPGVVVYSGGRYDLLPSSSAY [chain 3 E361A], the percent of parent was ~77 % of RXFP3 binding.
The result for chain 3 QMADAATIATMNKAAGGDKLAELFSLVPDLLEAANTSGNASLQLPALWWALGLELPDGAPPGHPPGSGGAESADTEARVRILISVVYWVVCALGLAGNLLVLYLMKSMQGWRKSSINLFVTNLALTDFQFVLTLPFWAVENALDFKWPFGKAMCKIVSMVTSMNMYASVFFLTAMSVTRYHSVASALKSHRTRGHGRGDCCGRSLGDSCCFSAKALCVWIWALAALASLPSAIFSTTVKVMGEELCLVRFPDKLLGRDRQFWLGLYHSQKVLLGFVLPLGIIILCYLLLVRFIADRRAAGTKGGAAVAGGRPTGASARRLSKVTKSVTIVVLSFFLCWLPNQALTTWSILIKFNAVPFSQEYFLCQVYAFPVSVCLAHSNSCLNPVLYCLVRREFRKALKSLLWRIASPSITSMRPFTATTKPEHEDQGLQAPAPPHAAAEPDLLYYPPGVVVYSGGRYDLLPSSSAY [chain 3 D46A, chain 3 E50A] reads ~99 % of RXFP3 binding; that for chain 3 QMADAATIATMNKAAGGDKLAELFSLVPDLLEAANTSGNASLQLPDLWWELGLELPDGAPPGHPPGSGGAESADTEARVRILISVVYWVVCALGLAGNLLVLYLMKSMQGWRKSSINLFVTNLALTDFQFVLTLPFWAVANALDFKWPFGKAMCKIVSMVTSMNMYASVFFLTAMSVTRYHSVASALKSHRTRGHGRGDCCGRSLGDSCCFSAKALCVWIWALAALASLPSAIFSTTVKVMGEELCLVRFPDKLLGRDRQFWLGLYHSQKVLLGFVLPLGIIILCYLLLVRFIADRRAAGTKGGAAVAGGRPTGASARRLSKVTKSVTIVVLSFFLCWLPNQALTTWSILIKFNAVPFSQEYFLCQVYAFPVSVCLAHSNSCLNPVLYCLVRREFRKALKSLLWRIASPSITSMRPFTATTKPEHEDQGLQAPAPPHAAAEPDLLYYPPGVVVYSGGRYDLLPSSSAY [chain 3 E140A], ~5.5 % of RXFP3 binding.
In the case of chain 3 QMADAATIATMNKAAGGDKLAELFSLVPDLLEAANTSGNASLQLPDLWWELGLELPDGAPPGHPPGSGGAESAATEARVRILISVVYWVVCALGLAGNLLVLYLMKSMQGWRKSSINLFVTNLALTDFQFVLTLPFWAVENALDFKWPFGKAMCKIVSMVTSMNMYASVFFLTAMSVTRYHSVASALKSHRTRGHGRGDCCGRSLGDSCCFSAKALCVWIWALAALASLPSAIFSTTVKVMGEELCLVRFPDKLLGRDRQFWLGLYHSQKVLLGFVLPLGIIILCYLLLVRFIADRRAAGTKGGAAVAGGRPTGASARRLSKVTKSVTIVVLSFFLCWLPNQALTTWSILIKFNAVPFSQEYFLCQVYAFPVSVCLAHSNSCLNPVLYCLVRREFRKALKSLLWRIASPSITSMRPFTATTKPEHEDQGLQAPAPPHAAAEPDLLYYPPGVVVYSGGRYDLLPSSSAY [chain 3 D74A], the percent of parent was ~81 % of RXFP3 binding.
Take chain 3 QMADAATIATMNKAAGGDKLAELFSLVPDLLEAANTSGNASLQLPDLWWELGLELPDGAPPGHPPGSGGAESADTEARVRILISVVYWVVCALGLAGNLLVLYLMKSMQGWRKSSINLFVTNLALTDFQFVLTLPFWAVENALDFKWPFGKAMCKIVSMVTSMNMYASVFFLTAMSVTRYHSVASALKSHRTRGHGRGDCCGRSLGDSCCFSAKALCVWIWALAALASLPSAIFSTTVKVMGAELCLVRFPDKLLGRDRQFWLGLYHSQKVLLGFVLPLGIIILCYLLLVRFIADRRAAGTKGGAAVAGGRPTGASARRLSKVTKSVTIVVLSFFLCWLPNQALTTWSILIKFNAVPFSQEYFLCQVYAFPVSVCLAHSNSCLNPVLYCLVRREFRKALKSLLWRIASPSITSMRPFTATTKPEHEDQGLQAPAPPHAAAEPDLLYYPPGVVVYSGGRYDLLPSSSAY [chain 3 E243A]: the percent of parent was ~15 % of RXFP3 binding.
Turning to chain 3 QMADAATIATMNKAAGGDKLAELFSLVPDLLEAANTSGNASLQLPDLWWELGLELPDGAPPGHPPGSGGAASADTEARVRILISVVYWVVCALGLAGNLLVLYLMKSMQGWRKSSINLFVTNLALTDFQFVLTLPFWAVENALDFKWPFGKAMCKIVSMVTSMNMYASVFFLTAMSVTRYHSVASALKSHRTRGHGRGDCCGRSLGDSCCFSAKALCVWIWALAALASLPSAIFSTTVKVMGEELCLVRFPDKLLGRDRQFWLGLYHSQKVLLGFVLPLGIIILCYLLLVRFIADRRAAGTKGGAAVAGGRPTGASARRLSKVTKSVTIVVLSFFLCWLPNQALTTWSILIKFNAVPFSQEYFLCQVYAFPVSVCLAHSNSCLNPVLYCLVRREFRKALKSLLWRIASPSITSMRPFTATTKPEHEDQGLQAPAPPHAAAEPDLLYYPPGVVVYSGGRYDLLPSSSAY [chain 3 E71A], the percent of parent is ~110 % of RXFP3 binding.
As to chain 3 QMADAATIATMNKAAGGDKLAELFSLVPDLLEAANTSGNASLQLPDLWWELGLELPDGAPPGHPPGSGGAESADTEARVRILISVVYWVVCALGLAGNLLVLYLMKSMQGWRKSSINLFVTNLALTDFQFVLTLPFWAVENALDFKWPFGKAMCKIVSMVTSMNMYASVFFLTAMSVTRYHSVASALKSHRTRGHGRGDCCGRSLGDSCCFSAKALCVWIWALAALASLPSAIFSTTVKVMGEELCLVRFPAKLLGRDRQFWLGLYHSQKVLLGFVLPLGIIILCYLLLVRFIADRRAAGTKGGAAVAGGRPTGASARRLSKVTKSVTIVVLSFFLCWLPNQALTTWSILIKFNAVPFSQEYFLCQVYAFPVSVCLAHSNSCLNPVLYCLVRREFRKALKSLLWRIASPSITSMRPFTATTKPEHEDQGLQAPAPPHAAAEPDLLYYPPGVVVYSGGRYDLLPSSSAY [chain 3 D252A], the percent of parent was ~96 % of RXFP3 binding.
Take chain 3 QMADAATIATMNKAAGGDKLAELFSLVPDLLEAANTSGNASLQLPDLWWELGLALPAGAPPGHPPGSGGAESADTEARVRILISVVYWVVCALGLAGNLLVLYLMKSMQGWRKSSINLFVTNLALTDFQFVLTLPFWAVENALDFKWPFGKAMCKIVSMVTSMNMYASVFFLTAMSVTRYHSVASALKSHRTRGHGRGDCCGRSLGDSCCFSAKALCVWIWALAALASLPSAIFSTTVKVMGEELCLVRFPDKLLGRDRQFWLGLYHSQKVLLGFVLPLGIIILCYLLLVRFIADRRAAGTKGGAAVAGGRPTGASARRLSKVTKSVTIVVLSFFLCWLPNQALTTWSILIKFNAVPFSQEYFLCQVYAFPVSVCLAHSNSCLNPVLYCLVRREFRKALKSLLWRIASPSITSMRPFTATTKPEHEDQGLQAPAPPHAAAEPDLLYYPPGVVVYSGGRYDLLPSSSAY [chain 3 E54A, chain 3 D57A]: the percent of parent was ~130 % of RXFP3 binding.
As to chain 3 QMADAATIATMNKAAGGDKLAELFSLVPDLLEAANTSGNASLQLPDLWWELGLELPDGAPPGHPPGSGGAESADTEARVRILISVVYWVVCALGLAGNLLVLYLMKSMQGWRKSSINLFVTNLALTDFQFVLTLPFWAVANALAFKWPFGKAMCKIVSMVTSMNMYASVFFLTAMSVTRYHSVASALKSHRTRGHGRGDCCGRSLGDSCCFSAKALCVWIWALAALASLPSAIFSTTVKVMGEELCLVRFPDKLLGRDRQFWLGLYHSQKVLLGFVLPLGIIILCYLLLVRFIADRRAAGTKGGAAVAGGRPTGASARRLSKVTKSVTIVVLSFFLCWLPNQALTTWSILIKFNAVPFSQEYFLCQVYAFPVSVCLAHSNSCLNPVLYCLVRREFRKALKSLLWRIASPSITSMRPFTATTKPEHEDQGLQAPAPPHAAAEPDLLYYPPGVVVYSGGRYDLLPSSSAY [chain 3 E140A, chain 3 D144A], the percent of parent was ~6 % of RXFP3 binding.
For the variant chain 3 QMADAATIATMNKAAGGDKLAELFSLVPDLLEAANTSGNASLQLPDLWWELGLELPDGAPPGHPPGSGGAESADTEARVRILISVVYWVVCALGLAGNLLVLYLMKSMQGWRKSSINLFVTNLALTDFQFVLTLPFWAVENALAFKWPFGKAMCKIVSMVTSMNMYASVFFLTAMSVTRYHSVASALKSHRTRGHGRGDCCGRSLGDSCCFSAKALCVWIWALAALASLPSAIFSTTVKVMGEELCLVRFPDKLLGRDRQFWLGLYHSQKVLLGFVLPLGIIILCYLLLVRFIADRRAAGTKGGAAVAGGRPTGASARRLSKVTKSVTIVVLSFFLCWLPNQALTTWSILIKFNAVPFSQEYFLCQVYAFPVSVCLAHSNSCLNPVLYCLVRREFRKALKSLLWRIASPSITSMRPFTATTKPEHEDQGLQAPAPPHAAAEPDLLYYPPGVVVYSGGRYDLLPSSSAY [chain 3 D144A], the percent of parent was ~9.5 % of RXFP3 binding.
As for chain 3 QMADAATIATMNKAAGGDKLAELFSLVPDLLEAANTSGNASLQLPDLWWELGLELPDGAPPGHPPGSGGAESADTEARVRILISVVYWVVCALGLAGNLLVLYLMKSMQGWRKSSINLFVTNLALTDFQFVLTLPFWAVENALDFKWPFGKAMCKIVSMVTSMNMYASVFFLTAMSVTRYHSVASALKSHRTRGHGRGDCCGRSLGDSCCFSAKALCVWIWALAALASLPSAIFSTTVKVMGEELCLVRFPDKLLGRARQFWLGLYHSQKVLLGFVLPLGIIILCYLLLVRFIADRRAAGTKGGAAVAGGRPTGASARRLSKVTKSVTIVVLSFFLCWLPNQALTTWSILIKFNAVPFSQEYFLCQVYAFPVSVCLAHSNSCLNPVLYCLVRREFRKALKSLLWRIASPSITSMRPFTATTKPEHEDQGLQAPAPPHAAAEPDLLYYPPGVVVYSGGRYDLLPSSSAY [chain 3 D258A], the percent of parent was ~79 % of RXFP3 binding.
